Article PMC3112237 (Journal of virology, 2011)

Key:
[1] = target: the molecule itself; test: SDS-PAGE of unboiled samples with Western blot
[2] = target: the molecule itself; test: SDS-PAGE of unboiled samples, Coomassie stain

B1: recombinant Ad3 fiber knob S5/Kn (five shaft motifs and the knob domain) (domain or fragment)
chain: GSLQLKVGSGLTVDTTDGSLEENIKVNTPLTKSNHSINLPIGNGLQIEQNKLCSKLGNGLTFDSSNSIALKNNTLWTGPKPEANCIIEYGKQNPDSKLTLILVKNGGIVNGYVTLMGASDYVNTLFKNKNVSINVELYFDATGHILPDSSSLKTDLELKYKQTADFSARGFMPSTTAYPFVLPNAGTHNENYIFGQCYYKASDGALFPLEVTVMLNKRLPDSRTSYVMTFLWSLNAGLAPETTQATLITSPFTFSYIREDD
[1]
  stoichiometry N: 3

B2: recombinant Ad3 fiber knob S6/Kn (six shaft motifs and the knob domain) (domain or fragment)
chain: GVLSLKCVNPLTTASGSLQLKVGSGLTVDTTDGSLEENIKVNTPLTKSNHSINLPIGNGLQIEQNKLCSKLGNGLTFDSSNSIALKNNTLWTGPKPEANCIIEYGKQNPDSKLTLILVKNGGIVNGYVTLMGASDYVNTLFKNKNVSINVELYFDATGHILPDSSSLKTDLELKYKQTADFSARGFMPSTTAYPFVLPNAGTHNENYIFGQCYYKASDGALFPLEVTVMLNKRLPDSRTSYVMTFLWSLNAGLAPETTQATLITSPFTFSYIREDD
[1]
  stoichiometry N: 3

B3: Ad3-K/S/Kn (His tag, K-coil dimerization domain, flexible linker, one shaft motif, Ad3 fiber knob) (designed binder)
chain: KVSALKEKVSALKEKVSALKEKVSALKEKVSALKEGSGGGSGGGSGGGSNSIALKNNTLWTGPKPEANCIIEYGKQNPDSKLTLILVKNGGIVNGYVTLMGASDYVNTLFKNKNVSINVELYFDATGHILPDSSSLKTDLELKYKQTADFSARGFMPSTTAYPFVLPNAGTHNENYIFGQCYYKASDGALFPLEVTVMLNKRLPDSRTSYVMTFLWSLNAGLAPETTQATLITSPFTFSYIREDD
modifications: biotinylated (sites not given) only where it was immobilised on streptavidin (Fig. 5A)
[2]
  stoichiometry N: 3

B4: Ad3-E/S/Kn (His tag, E-coil dimerization domain, flexible linker, one shaft motif, Ad3 fiber knob) (designed binder)
chain: EVSALEKEVSALEKEVSALEKEVSALEKEVSALEKGSGGGSGGGSGGGSNSIALKNNTLWTGPKPEANCIIEYGKQNPDSKLTLILVKNGGIVNGYVTLMGASDYVNTLFKNKNVSINVELYFDATGHILPDSSSLKTDLELKYKQTADFSARGFMPSTTAYPFVLPNAGTHNENYIFGQCYYKASDGALFPLEVTVMLNKRLPDSRTSYVMTFLWSLNAGLAPETTQATLITSPFTFSYIREDD
[2]
  stoichiometry N: 3

B5: recombinant Ad3 fiber knob S/Kn (one shaft motif and the knob domain) (domain or fragment)
chain: NSIALKNNTLWTGPKPEANCIIEYGKQNPDSKLTLILVKNGGIVNGYVTLMGASDYVNTLFKNKNVSINVELYFDATGHILPDSSSLKTDLELKYKQTADFSARGFMPSTTAYPFVLPNAGTHNENYIFGQCYYKASDGALFPLEVTVMLNKRLPDSRTSYVMTFLWSLNAGLAPETTQATLITSPFTFSYIREDD
[1]
  stoichiometry N: 3

B6: recombinant Ad3 fiber knob S2/Kn (two shaft motifs and the knob domain) (domain or fragment)
chain: NKLCSKLGNGLTFDSSNSIALKNNTLWTGPKPEANCIIEYGKQNPDSKLTLILVKNGGIVNGYVTLMGASDYVNTLFKNKNVSINVELYFDATGHILPDSSSLKTDLELKYKQTADFSARGFMPSTTAYPFVLPNAGTHNENYIFGQCYYKASDGALFPLEVTVMLNKRLPDSRTSYVMTFLWSLNAGLAPETTQATLITSPFTFSYIREDD
[1]
  stoichiometry N: 3

B7: recombinant Ad3 fiber knob S3/Kn (three shaft motifs and the knob domain) (domain or fragment)
chain: HSINLPIGNGLQIEQNKLCSKLGNGLTFDSSNSIALKNNTLWTGPKPEANCIIEYGKQNPDSKLTLILVKNGGIVNGYVTLMGASDYVNTLFKNKNVSINVELYFDATGHILPDSSSLKTDLELKYKQTADFSARGFMPSTTAYPFVLPNAGTHNENYIFGQCYYKASDGALFPLEVTVMLNKRLPDSRTSYVMTFLWSLNAGLAPETTQATLITSPFTFSYIREDD
[1]
  stoichiometry N: 3

B8: recombinant Ad3 fiber knob S4/Kn (four shaft motifs and the knob domain) (domain or fragment)
chain: LEENIKVNTPLTKSNHSINLPIGNGLQIEQNKLCSKLGNGLTFDSSNSIALKNNTLWTGPKPEANCIIEYGKQNPDSKLTLILVKNGGIVNGYVTLMGASDYVNTLFKNKNVSINVELYFDATGHILPDSSSLKTDLELKYKQTADFSARGFMPSTTAYPFVLPNAGTHNENYIFGQCYYKASDGALFPLEVTVMLNKRLPDSRTSYVMTFLWSLNAGLAPETTQATLITSPFTFSYIREDD
[1]
  stoichiometry N: 3
